Here are results for twelve molecules from patent publication US20250296971A1, “GASTRIC INHIBITORY PEPTIDE RECEPTOR LIGANDS” (priority 2021, published 2025).

Assay [1] addresses biotinylated extracellular domain of the human GIP receptor (bioGIPR) (human) (UniProt P48546). Put plainly: SPR single cycle kinetics, bioGIPR captured on chip; category A: pKD >9.0.
Assay [2] has the same target. Put plainly: SPR single cycle kinetics, bioGIPR captured on chip; category A: t1/2 >15 min.
The target of assay [3] is human Gastric Inhibitory Peptide Receptor (human) (UniProt P48546). Briefly: FACS competition with GIP-057 on CHO-K1-hGIPR cells; pIC50 category A: >8.0.
Assay [4] has as its target human Gastric Inhibitory Peptide Receptor (GIPR) (human) (UniProt P48546). Briefly: FACS competition vs biotinylated GIP-057 on CHO-K1-hGIPR cells; category A: pIC50 >8.0.

*1 amine or outer side, *2 acyl side, *3 side chain or, on linkers, in order; H or OH if unused. Bridges are numbered along the chain shown (N, C = ends). Primed or numbered codes have the meaning given here. [ ]: non-standard residue; d: D form. The star is where a group is joined. Ttds(3) = 1,13-diamino-4,7,10-trioxatridecan-succinamic acid linker; APAc″ = 4-amino-1-carboxymethylpiperidine, NC1CCN(CC(=O)*)CC1; dE(AGLU) = D-glutamic acid bearing 1-amino-1-deoxy-D-glucitol; Ttds(4) = 1,13-diamino-4,7,10-trioxatridecan-succinamic acid; Pro(trans-4-NH2) = O=C([C@@H]1C[C@@H](N[*:3])CN1[*:1])[*:2]; DOTA = O=C(O)CN1CCN(CC(=O)O)CCN(CC(=O)*)CCN(CC(=O)O)CC1; Trp(5-Cl) = N[C@@H](Cc1c[nH]c2ccc(Cl)cc12)C(=O)O; Pyridine(2,6-diCH2) = c1cc(C[*:1])nc(C[*:2])c1; Trp(5-F) = N[C@@H](Cc1c[nH]c2ccc(F)cc12)C(=O)O; APAc = 4-amino-1-carboxymethylpiperidine; 1Nal = N[C@@H](Cc1cccc2ccccc12)C(=O)O; mXylylene = c1cc(C[*:1])cc(C[*:2])c1; Glutaryl = O=C(CCCC(=O)[*:2])[*:1]; AGLU = 1-amino-1-deoxy-D-glucitol; Hyp = O=C(O)[C@@H]1C[C@@H](O)CN1; Cha = N[C@@H](CC1CCCCC1)C(=O)O; Cysteamide = C(CS[*:3])N[*:1]; Suc = O=C(CCC(=O)[*:2])[*:1]; αMeK = C[C@](N)(CCCCN)C(=O)O; Thp = NC1(C(=O)O)CCOCC1; Dap = NC[C@H](N)C(=O)O

Sequence of biotinylated extracellular domain of the human GIP receptor (bioGIPR) (human) (P48546 24-138 limits assumed): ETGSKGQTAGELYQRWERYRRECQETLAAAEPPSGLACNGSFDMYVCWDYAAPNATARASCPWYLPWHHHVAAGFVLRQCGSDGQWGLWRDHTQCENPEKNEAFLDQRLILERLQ
Sequence of human Gastric Inhibitory Peptide Receptor (human) (P48546 22-466 limits assumed): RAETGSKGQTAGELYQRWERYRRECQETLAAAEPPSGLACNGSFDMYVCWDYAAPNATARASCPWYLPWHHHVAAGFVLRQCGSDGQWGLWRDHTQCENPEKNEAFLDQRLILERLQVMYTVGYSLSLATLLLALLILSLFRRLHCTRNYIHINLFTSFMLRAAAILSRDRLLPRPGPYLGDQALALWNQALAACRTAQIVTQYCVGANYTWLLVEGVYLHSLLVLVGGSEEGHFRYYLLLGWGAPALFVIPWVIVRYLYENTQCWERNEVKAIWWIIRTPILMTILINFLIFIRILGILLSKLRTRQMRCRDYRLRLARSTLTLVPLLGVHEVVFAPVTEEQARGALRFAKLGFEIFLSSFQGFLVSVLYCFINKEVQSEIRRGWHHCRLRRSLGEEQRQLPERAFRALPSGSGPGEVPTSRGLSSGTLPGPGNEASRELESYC
Sequence of human Gastric Inhibitory Peptide Receptor (GIPR) (human) (P48546 22-466 limits assumed): as above

B1: DOTA-APAc-Asp-Trp-5Clw-Hyp-Glu-leu-[Cys(2Lut)-Thp-Leu-Ile-AET] (peptide)
peptide: {DOTA-APAc″}-DW[Trp(5-Cl)][Hyp]E[dL]C[Thp]LI[Cysteamide]
modifications: linker (positions not given here) via Pyridine(2,6-diCH2); not fully specified (bridges); printed as DOTA-APAc-Asp-Trp-5Clw-Hyp-Glu-leu-[Cys(2Lut)-Thp-Leu-Ile-AET]
B1: the pKD in assay [1] is over 9 pkd. Moreover, the t1/2 in assay [2] was over 15 min. The molecule further registered a pIC50 in assay [3] of over 8 pic50.

In turn, Suc-W[Trp(5-Cl)][Hyp]E[dL]C[Thp]LIC-{Ttds(4)-Lys(DOTA)-NH2} (linker 6-10 via Pyridine(2,6-diCH2)) [HO-Succinyl-Trp-5Clw-Hyp-Glu-leu-[Cys(2Lut)-Thp-Leu-Ile-Cys]-Ttds-Lys(DOTA)-NH2] yielded a pKD in assay [1] of over 9 pkd. This molecule also had a t1/2 in assay [2] of over 15 min. Also, the pIC50 in assay [3] is over 8 pic50. Molecule Ac-D[Trp(5-Cl)][Trp(5-Cl)][Hyp]E[dL]C[Thp]LIC-NH2 (linker 7-11 via Pyridine(2,6-diCH2)) [Ac-Asp-5Clw-5Clw-Hyp-Glu-leu-[Cys(2Lut)-Thp-Leu-Ile-Cys]-NH2] displayed a pIC50 in assay [4] of over 8 pic50. The same measure, in the same setting: as for Ac-DW[Trp(5-Cl)][Hyp]E[dL]C[Thp][Cha]IC-NH2 (linker 7-11 via Pyridine(2,6-diCH2)) [Ac-Asp-Trp-5Clw-Hyp-Glu-leu-[Cys(2Lut)-Thp-Cha-Ile-Cys]-NH2], the figure is over 8 pic50.

B2: Ac-Asp-1Ni-5Clw-Hyp-Glu-leu-[Cys(2Lut)-Thp-Leu-Ile-Cys]-NH2 (peptide)
peptide: Ac-D[1Nal][Trp(5-Cl)][Hyp]E[dL]C[Thp]LIC-NH2
modifications: linker 7-11 via Pyridine(2,6-diCH2)
SMILES: CC[C@H](C)[C@@H]1NC(=O)[C@H](CC(C)C)NC(=O)C2(CCOCC2)NC(=O)[C@@H](NC(=O)[C@@H](CC(C)C)NC(=O)[C@H](CCC(=O)O)NC(=O)[C@@H]2C[C@@H](O)CN2C(=O)[C@H](Cc2c[nH]c3ccc(Cl)cc23)NC(=O)[C@H](Cc2cccc3ccccc23)NC(=O)[C@H](CC(=O)O)NC(C)=O)CSCc2cccc(n2)CSC[C@@H](C(N)=O)NC1=O
For the molecule B2, the pIC50 in assay [4] is over 8 pic50. Still for that read-out and setting: as for {AGLU-Glutaryl}-DW[Trp(5-Cl)][Pro(trans-4-NH2)]E[dL]C[αMeK](DOTA)LIC-{APAc-dE(AGLU)-NH2} (linker 7-11 via Pyridine(2,6-diCH2)) [AGLU-Glutar-Asp-Trp-5Clw-Tap-Glu-leu-[Cys(2Lut)-Amk(DOTA)-Leu-Ile-Cys]-APAc-glu(AGLU)-NH2], the figure is over 8 pic50.

Molecule Ac-DW[Trp(5-Cl)][Hyp]V[dL]C[Thp]LIC-NH2 (linker 7-11 via Pyridine(2,6-diCH2)) [Ac-Asp-Trp-5Clw-Hyp-Val-leu-[Cys(2Lut)-Thp-Leu-Ile-Cys]-NH2] came in with a pIC50 in assay [4] of over 8 pic50. Same read-out and setting: under Ac-DW[Trp(5-Cl)][Hyp]S[dL]C[Thp]LIC-NH2 (linker 7-11 via Pyridine(2,6-diCH2)) [Ac-Asp-Trp-5Clw-Hyp-Ser-leu-[Cys(2Lut)-Thp-Leu-Ile-Cys]-NH2] stands over 8 pic50; under Ac-[dD]W[Trp(5-Cl)][Hyp]E[dL]C[Thp]LIC-NH2 (linker 7-11 via Pyridine(2,6-diCH2)) [Ac-asp-Trp-5Clw-Hyp-Glu-leu-[Cys(2Lut)-Thp-Leu-Ile-Cys]-NH2], over 8 pic50.

B3: DOTA-APAc-Asp-Trp-5Clw-Hyp-Glu-leu-[Dap(3MeBn)-Thp-Leu-Ile-AET] (peptide)
peptide: {DOTA-APAc″}-DW[Trp(5-Cl)][Hyp]E[dL][Dap][Thp]LI[Cysteamide]
modifications: linker (positions not given here) via mXylylene; not fully specified (bridges); printed as DOTA-APAc-Asp-Trp-5Clw-Hyp-Glu-leu-[Dap(3MeBn)-Thp-Leu-Ile-AET]
Take B3: the pKD in assay [1] is over 9 pkd. For the same molecule, in assay [2], the t1/2 was over 15 min. Moreover, the pIC50 in assay [3] was over 8 pic50. Turning to Ac-DW[Trp(5-Cl)][Hyp]A[dL]C[Thp]LIC-NH2 (linker 7-11 via Pyridine(2,6-diCH2)) [Ac-Asp-Trp-5Clw-Hyp-Ala-leu-[Cys(2Lut)-Thp-Leu-Ile-Cys]-NH2], in assay [4], the pIC50 is over 8 pic50. On to Ac-D[Trp(5-F)][Trp(5-Cl)][Hyp]E[dL]C[Thp]LIC-NH2 (linker 7-11 via Pyridine(2,6-diCH2)) [Ac-Asp-5Fw-5Clw-Hyp-Glu-leu-[Cys(2Lut)-Thp-Leu-Ile-Cys]-NH2], for which, in assay [4], the pIC50 was over 8 pic50.
